Data on eleven molecules can be found in PMC3475010 (BMC Structural Biology, 2012).

The Tm is the temperature at the midpoint of the melting transition. What is called Km is the concentration of substrate that gives half-maximal velocity. Usually Vmax stands for the top rate of the reaction or transport when substrate is in excess. In general, kcat/Km refers to the second-order rate constant that governs catalysis at low substrate concentration. What is called kcat is the maximal rate divided by the concentration of active sites.

Data set [1] concerns the target T1, StAckA (Salmonella typhimurium acetate kinase, AckA) (Salmonella enterica, UniProt P63411).
T1 construct: expressed in E. coli; Ni-NTA and gel filtration; homodimer
T1 sequence (P63411 1-400): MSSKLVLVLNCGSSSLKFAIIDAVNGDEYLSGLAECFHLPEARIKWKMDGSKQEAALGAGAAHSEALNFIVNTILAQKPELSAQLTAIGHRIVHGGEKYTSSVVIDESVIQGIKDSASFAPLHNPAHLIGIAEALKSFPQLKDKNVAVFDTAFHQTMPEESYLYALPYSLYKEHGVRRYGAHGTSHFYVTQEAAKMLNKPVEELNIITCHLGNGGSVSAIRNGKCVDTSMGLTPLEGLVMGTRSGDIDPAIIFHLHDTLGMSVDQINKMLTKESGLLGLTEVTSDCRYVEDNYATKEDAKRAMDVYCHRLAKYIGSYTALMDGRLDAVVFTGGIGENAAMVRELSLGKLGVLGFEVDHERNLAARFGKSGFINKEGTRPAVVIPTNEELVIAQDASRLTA
Put plainly: kinetic assay after […] min preincubation at […] °C with inhibitor. In kind it is biochemical.

Data set [2] has as its target T1, StAckA (Salmonella typhimurium acetate kinase, AckA). Put plainly: initial velocity assay, acetyl-phosphate synthesis direction. In kind it is biochemical. The conditions noted are these: co-substrate acetate, Mg2+, pH 7.5, 37 °C. An excerpt:
(§1) initial velocity assay, acetyl-phosphate synthesis direction on StAckA (Salmonella typhimurium acetate kinase, AckA)

For data set [3] the target is unchanged. Put plainly: X-ray crystal structure, […] Å. The class given is binding. The conditions noted are these: dimeric interface pocket, one citrate per dimer; citrate from crystallization condition.
For data set [4] the target is unchanged. The data set can be described thus: CD thermal denaturation. In kind it is binding. The conditions noted are these: read-out: dTm.
Data set [5] has the same target. The data set can be described thus: CD thermal denaturation. In kind it is binding. The conditions noted are these: ligand close to its Km, pH 7.5; unliganded reference Tm 45 °C.
Data set [6] has the same target. The data set can be described thus: inhibition of acetate utilization, kinetic assay. In kind it is biochemical. The conditions noted are these: equimolar to acetate; not a substrate.
Substrate in data set [7]: CC(=O)O
The data set can be described thus: purified protein. The conditions noted are these: ATP, Mg2+, pH 7.5, 37 °C.

Substrate in data set [8]: CC(=O)OP(=O)(O)O
The data set can be described thus: purified protein. The conditions noted are these: reverse reaction (ATP synthesis), ADP, Mg2+, pH 7.5, 37 °C. In kind it is biochemical, Salmonella enterica.

Substrate in data set [9]: CCC(=O)O
The data set can be described thus: purified protein. In kind it is biochemical, Salmonella enterica. The conditions noted are these: ATP, Mg2+, pH 7.5, 37 °C.

Substrate in data set [10]: Nc1ncnc2c1ncn2[C@@H]1O[C@H](COP(=O)(O)OP(=O)(O)O)[C@@H](O)[C@H]1O
The data set can be described thus: purified protein. In kind it is biochemical, Salmonella enterica. The conditions noted are these: reverse reaction (ATP synthesis), acetyl-phosphate, Mg2+, pH 7.5, 37 °C.

Substrate in data set [11]: Nc1ncnc2c1ncn2[C@@H]1O[C@H](COP(=O)(O)OP(=O)(O)OP(=O)(O)O)[C@@H](O)[C@H]1O
Put plainly: purified protein. The conditions noted are these: co-substrate acetate, Mg2+, pH 7.5, 37 °C. In kind it is biochemical, Salmonella enterica.

Substrate in data set [12]: Nc1nc2c(ncn2[C@@H]2O[C@H](COP(=O)(O)OP(=O)(O)OP(=O)(O)O)[C@@H](O)[C@H]2O)c(=O)[nH]1
Put plainly: initial velocity assay, acetyl-phosphate synthesis direction. The conditions noted are these: co-substrate acetate, Mg2+, pH 7.5, 37 °C. In kind it is biochemical, Salmonella enterica.
Source text: as §1

Substrate in data set [13]: O=c1ccn([C@@H]2O[C@H](COP(=O)(O)OP(=O)(O)OP(=O)(O)O)[C@@H](O)[C@H]2O)c(=O)[nH]1
Described as above. The class given is biochemical, Salmonella enterica. The conditions noted are these: co-substrate acetate, Mg2+, pH 7.5, 37 °C.
Source text: as §1

Where two headings read alike, the source gives them in different places.

Regarding `O=C(O)CCC(=O)C(=O)O` [α-KG], the IC50 in [1] (read-out: kcat(s^-1)) amounted to 7 ± 1.8 mM.

For the molecule `Nc1ccn([C@@H]2O[C@H](COP(=O)(O)OP(=O)(O)OP(=O)(O)O)[C@@H](O)[C@H]2O)c(=O)n1` [CTP], the “kcat/Km(s^-1 mM^-1)” value in data set [2] was 88 ± 42 µM.

Consider `NCCC(N)C(=O)O` (stereo not drawn) [2,4-DAB], for which the IC50 in data set [1] (read-out: kcat/Km(s^-1 mM^-1), saturating cognate ligand, 37 °C) amounted to 5 ± 2.2 mM.

As to `CCC(=O)C(=O)O` [2-KB], the IC50 in data set [1] (read-out: [I]) turned out to be 3 ± 1.3 mM.

Take `O=C(O)CC(O)(CC(=O)O)C(=O)O` [Citrate]: the “X-ray crystal structure, 1.90 Å” value in data set [3] is on record as “only one citrate binds at the dimeric interface resulting in an asymmetric dimer”. Moreover, the IC50 in [1] (read-out: Km) was determined as 63 ± 15 mM. Moreover, in data set [4], the ΔTm at 10000 µM came out at 10 °C.

Regarding `O=C(O)CCC(=O)O` [Succinate], the IC50 in data set [1] (read-out: Vmax(μmol min^-1 mg^-1)) was 75 ± 20 mM.

Consider `CC(=O)OP(=O)(O)O` [Acetyl-phosphate], for which the Tm in data set [5] came to 54 °C.

Regarding `CCCC(=O)O` [butyrate], the “% reduction of rate at equimolar concentration” value in data set [6] is on record as 40%.

In the case of `Nc1ncnc2c1ncn2[C@@H]1O[C@H](COP(=O)(O)OP(=O)(O)O)[C@@H](O)[C@H]1O` [ADP], in data set [5], the Tm stood at 52 °C.

Regarding `O=C(O)C[C@H](O)C(=O)O` [Malate], the IC50 in [1] (read-out: [I]) worked out at 1 ± 0.5 mM.

B1: StAckA (Salmonella typhimurium acetate kinase, AckA) (Salmonella enterica subsp. enterica serovar Typhimurium str. LT2) (protein)
chain: T1 sequence (P63411 1-400)
notes: expressed in E. coli; Ni-NTA and gel filtration; homodimer
B1: the Km in the data set “purified protein [7]” is 1200 ± 100 µM; in “purified protein [8]”, 280 ± 40 µM; in “purified protein [9]”, 11200 ± 100 µM; in “purified protein [10]”, 100 ± 3 µM; in the data set “purified protein [11]” it was 70 ± 5 µM; in data set [12] it was 78 ± 27 µM. Also, the Km in data set [13] amounted to 96 ± 58 µM. Also, the Vmax in “purified protein [7]” stood at 1560 µmol/min/mg; in “purified protein [8]”, 2350 µmol/min/mg; in the data set “purified protein [9]” it was 1250 µmol/min/mg; in “purified protein [10]”, 2340 µmol/min/mg; in “purified protein [11]”, 1550 µmol/min/mg. In addition, the kcat/Km was determined as 985000 M⁻¹ s⁻¹ in “purified protein [7]”; 6.3e+06 ± 45000 M⁻¹ s⁻¹ in the data set “purified protein [8]”; 85000 ± 10000 M⁻¹ s⁻¹ in “purified protein [9]”; 1.7645e+07 ± 10000 M⁻¹ s⁻¹ in the data set “purified protein [10]”; 1.686e+07 ± 50000 M⁻¹ s⁻¹ in the data set “purified protein [11]”. Moreover, the kcat in the data set “purified protein [8]” turned out to be 1760 ± 25 s⁻¹; in the data set “purified protein [9]”, 940 ± 85 s⁻¹; in the data set “purified protein [10]”, 1750 ± 65 s⁻¹; in “purified protein [11]”, 1170 ± 85 s⁻¹.
